Experiments:
[1] = biological target: T1, human PD-1 extracellular domain fused with human Fc tag (hPD-1-hFc) (human); experiment: ELISA on coated PD1-hFc
T1 construct: also called human PD-1-hFc
Experimental: (§1) ELISA binding analysis was conducted based on human PD-1-hFc Protein. 96-well plates (Costar, Cat No:9018) were coated with 100 μL of 2 μg/ml PD1-hFc (CrownBio) in coating buffer (PBS, Hyclone, Cat No:SH30256.01B) overnight at 4° C. The wells were aspirated and non-specific binding sites were blocked by adding 200 μL of blocking buffer with 1% (w/v) of bovine serum albumin (BSA, Roche, Cat No: 738328) and incubating for 1 hour at 37° C. After the plates are washed three times with wash buffer (PBS with 0.05%(v/v) Tween20 (Sigma, Cat No:P1379), 100 μL/well of a suitable dilutions of hybridoma supernatant in blocking buffer were added and incubated at room temperature for 1 hour. The plates were washed and incubated with 100 μL/well of Goat anti-Mouse IgG (H+L) (Thermo, Cat No: 31432) in blocking buffer for 60 min. After the plates were washed, 100 μL/well of substrate solution (TMB(eBioscience, Cat No:00-4201-56) was added and the plates were incubated for 2min at room temperature. 100 μL/well of stop solution (2N H2SO4) was added to stop the reaction. The colorimetric signals were developed and read at 450 nm using a Auto Plate SpectraMax Plus (Supplier: Molecular Devices; Model: MNR0643; Software: SoftMax Pro v5.4).
(§2) Freestyle 293 cells (200 mL at 10⁶/mL) were transfected with 100 μg of each of the chimeric heavy and light chain expression plasmids and cultured for 6 days. The chimeric antibody in the supernatant was then purified with Protein-G column (GE healthcare).

[2] = biological target: T2, human PD-1 on cells (293T cells transfected with human PD-1) (human, UniProt Q15116 25-288); experiment: FACS on hPD-1-293T cells
T2 construct: whole, on cells; Also used as the target for the functional rows, where PD-1 stands on human T cells
Experimental: (§3) The cells were incubated with the indicated antibody (20 ug/ml with the dilution of ⅕) at 4° C. for 1 h. Cells were washed three times with FACS buffer. A secondary antibody (PE Goat anti-mouse: 1:200; PE mouse anti-human: 1:10) was added to the cells at 100 ul/well, and incubated at 4° C. for 40min. Cells were washed three times with FACS buffer and analyzed by FACS Array.
as §2

[3] = biological target: T2, human PD-1 on cells (293T cells …); experiment: FACS blockage on hPD-1-293T cells, competitor biotin PD-L1
Experimental: Various concentrations of the testing hybridoma antibodies were added to the cell suspension and incubated at 4° C. for 60 minutes in 96 well plates. […] Plates were washed 3 times, and mouse anti-biotin PE antibody (Biolgend, cat# 409004) was added. Flow cytometric analyses were performed using a FACS Array.
as §2

[4] = biological target: T3, human PD-1 extracellular domain fused with mouse Fc (PD-1-mFc) (human, UniProt Q15116 25-170); experiment: blockage ELISA, coated PD-1-mFc, competitor PDL-1-mFc-biotin
T3 construct: extracellular domain; not used because of the label; also called hPD-1-mFc; human PD-1-mouse Fc fusion protein
Experimental: (§4) PD-1-mFc antigen (CrownBio) was suspended in PBS (Hyclone,Cat No:SH30256.01B) buffer (2 ug/ml, 100 ul/ well) and coated on the 96 well plate (costar, Cat No.:9018) 4° C. overnight. Plates were washed 3 times using washing buffer: PBS+0.05% Tween 20(Sigma, Cat No.:P1379). 200 ul of blocking buffer (PBS+1%BSA(Roche, Cat No.:738328)), was added to each well, incubated at 37° C. for 1 hour, and washed 3 times. Various concentrations (suitable dilutions of hybridoma supernatant in PBS) of the anti-PD-1 Abs were added to the wells (100 μl/well) and incubated at 37° C. for 1 hour. […] Secondary antibody (Avidin HRP eBioscience cat No.:E07418-1632, 1:500, 100 ul/well) was added, incubated at 37 ° C. for 0.5 hour, and washed 3 times. TMB (Sigma, Cat No.: T0440, 100 ul/well) was added, and incubated for 3 min at RT. To stop the reaction, 2N H2SO4 (100 ul/well), was added. The colorimetric signals were developed and read at 450 nm using a Auto Plate SpectraMax Plus (Supplier: Molecular Devices; Model: MNR0643; Software: SoftMax Pro v5.4).
as §2

[5] = biological target: T2, human PD-1 on cells (293T cells …); experiment: FACS binding to 293T cells expressing human PD-1, MFI
Experimental: as §3

[6] = biological target: T1, human PD-1 extracellular domain fused …; experiment: ELISA binding to plate-bound PD-1, OD450 (methods similar to Example 2: plate coated with PD1-hFc)
Experimental: as §1

[7] = biological target: T3, human PD-1 extracellular domain fused …; experiment: ELISA ligand blockage: biotinylated PD-L1-mFc binding to plate-bound PD-1, OD450 (methods similar to Example 2: PD-1-mFc coated)
Experimental: as §4

T3 sequence (Q15116 25-170): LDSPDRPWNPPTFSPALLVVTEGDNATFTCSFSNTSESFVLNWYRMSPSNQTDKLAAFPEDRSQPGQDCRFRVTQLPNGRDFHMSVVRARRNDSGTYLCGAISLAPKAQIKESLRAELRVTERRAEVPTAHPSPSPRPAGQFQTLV
T1 sequence (chain, as listed by the source limits assumed): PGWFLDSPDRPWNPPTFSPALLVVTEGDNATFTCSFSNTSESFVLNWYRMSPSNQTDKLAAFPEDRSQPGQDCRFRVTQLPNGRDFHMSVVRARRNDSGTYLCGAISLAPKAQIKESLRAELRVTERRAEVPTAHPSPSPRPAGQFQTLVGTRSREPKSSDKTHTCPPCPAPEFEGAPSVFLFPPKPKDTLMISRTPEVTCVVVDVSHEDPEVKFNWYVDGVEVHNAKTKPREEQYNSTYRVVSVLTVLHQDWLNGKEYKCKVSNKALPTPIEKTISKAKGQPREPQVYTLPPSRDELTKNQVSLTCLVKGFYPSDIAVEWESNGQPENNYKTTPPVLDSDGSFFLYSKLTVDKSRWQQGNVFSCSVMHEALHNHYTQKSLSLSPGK
T2 sequence (Q15116 25-288): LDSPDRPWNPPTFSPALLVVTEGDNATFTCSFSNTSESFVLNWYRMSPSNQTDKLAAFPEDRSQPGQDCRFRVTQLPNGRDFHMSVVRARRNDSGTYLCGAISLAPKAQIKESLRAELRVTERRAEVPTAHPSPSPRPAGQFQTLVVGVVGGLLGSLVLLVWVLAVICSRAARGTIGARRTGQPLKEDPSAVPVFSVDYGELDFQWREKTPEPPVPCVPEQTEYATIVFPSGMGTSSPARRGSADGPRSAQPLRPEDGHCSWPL

Row | Binder | EC50 [1] [µg/mL] | EC50 [2] [µg/mL] | IC50 [3] [µg/mL] | IC50 [4] [µg/mL] | EC50 [5] [µg/mL] | EC50 [6] [µg/mL] | IC50 [7] [µg/mL]
1 | chimeric 7A4-hIgG1 (antibody, Full chimeric chains; also called 7A4-chimeric-IgG1) heavy: not shown light: DIVLTQSPASLAVSLGQRATISCRASESVDNYGYSFMNWFQQKPGQPPKLLIYRASNLESGIPARFSGSGSRTNFTLTINPVEADDVATYFCQQSNADPTFGGGTNLEIKRTVAAPSVFIFPPSDEQLKSGTASVVCLLNNFYPREAKVQWKVDNALQSGNSQESVTEQDSKDSTYSLSSTLTLSKADYEKHKVYACEVTHQGLSSPVTKSFNRGEC | – | – | – | – | 0.0337 | 0.0128 | 0.356
2 | chimeric 4C10-hIgG4 (antibody, V domains shown, Mouse variable regions with human IgG4 constant region) VH: QVQLKQSGPGLVQPSQNLSVTCTVSGFSLTTYGVHWVRQSPGKGLEWLGVIWSGGSTDYNAAFISRLTISKDNARSQVFFKMNSLQVNDTAMYYCAREKSVYGNYVGAMDYWGQGTSVTVSS VL: SIVMTQTPKFLLVSAGDRVTITCKASQSVSDDVAWYQQKPGQSPKLLIYYAFNRYTGVPDRFTGSGYGTDFTFTISTVQSEDLAVYFCQQDYRSPWTFGGGTKLEIKR | 0.0946 | 0.221 | 0.129 | 0.978 | – | – | –

Other lines, results leading:

Row | EC50 [1] [µg/mL] | EC50 [2] [µg/mL] | IC50 [3] [µg/mL] | IC50 [4] [µg/mL] | EC50 [5] [µg/mL] | EC50 [6] [µg/mL] | IC50 [7] [µg/mL] | Binder
3 | 0.062 | 0.0916 | 0.0706 | 0.871 | 0.137 | 0.0474 | 0.845 | chimeric 7A4-hIgG4 (antibody, Full chimeric chains) heavy: not shown light: DIVLTQSPASLAVSLGQRATISCRASESVDNYGYSFMNWFQQKPGQPPKLLIYRASNLESGIPARFSGSGSRTNFTLTINPVEADDVATYFCQQSNADPTFGGGTNLEIKRTVAAPSVFIFPPSDEQLKSGTASVVCLLNNFYPREAKVQWKVDNALQSGNSQESVTEQDSKDSTYSLSSTLTLSKADYEKHKVYACEVTHQGLSSPVTKSFNRGEC
4 | 0.0588 | 0.219 | 0.0403 | 1.03 | – | – | – | chimeric 10D1-hIgG4 (antibody, V domains shown, Mouse variable regions with human IgG4 constant region) VH: EVKLVESGGGLVKPGGSLKLSCAASGFTFSSYGMSWLRQTPEKRLEWVATMSGGGRDIYYPDSMKGRFTISRDNAKNNLYLQMSSLRSEDTALYYCARQYYDDWFAYWGQGTLVTVSA VL: DIVLTQTPATLSVTPGDSVSLSCRASQSISNNLHWYQQKSHESPRLLIKYASQSISGIPSRFSGSGSGTDFTLNINSVETEDFGMYFCQQSNSWPLTFGAGTKLELKR
5 | 0.0587 | 0.113 | 0.0521 | 0.856 | 0.0815 | 0.0456 | 0.878 | chimeric 13F1-hIgG4 (antibody, V domains shown, Full chimeric chains; also called 13F1-chimeric) VH: DVQLQESGPGLVKPSQSLSLTCTVTGYSITSDYAWNWIRQFPGNQLEWMAYISYSGYTSYNPSLKSRISITRDTSKNQFFLQLNSVTTEDTATYYCARSLDYDYGTMDYWGQGTSVTVSS VL: QIVLSQSPAILSASPGEKVTMTCRANSSVSSMHWYQQKPGSSPEPWIYAISNLAFGVPTRFSGSGSGTSYSLTISRVEAEDAATYFCQQWSSRPPTFGGGTKLEIKR
6 | 0.0646 | 0.103 | 0.0614 | 0.823 | – | – | – | chimeric 14A6-hIgG4 (antibody, V domains shown, Mouse variable regions with human IgG4 constant region) VH: DVQLQESGPGLVKPSQSLSLTCTVTGYSITSDYAWNWIRQFPGNQLEWMAYISYSGYTSYNPSLKSRISITRDTSRNQFFLQLNSVTTEDTATYYCARSLDYDYGTMDYWGQGTSVTVSS VL: QIVLSQSPAILSASPGEKVTMTCRANSSVSSMHWYQQKPGSSPEPWIYAISNLAFGVPARFSGSGSGTSYSLTISRVEAEDAATYFCQQWNSRPPTFGGGTKLEIKR
